Experimental data from paper PMC5737080.
Read-outs that look alike come from different tables or passages of the source.

Tests used:
[1] = biological target: β-S109C/Q299C-(AF488)2 (E. coli) (UniProt P0A988); assay: other fluorescence titration
[2] = biological target: β-S109C/Q299C/R103S-(AF488)2 (E. coli) (UniProt P0A988); assay: other fluorescence titration
[3] = biological target: β-S109C/Q299C-(AF488)2 (E. coli) (UniProt P0A988); assay: other fluorescence titration; remark: listed apart in the source
[4] = biological target: β-S109C/Q299C/R103S-(AF488)2 (E. coli) (UniProt P0A988); assay: other fluorescence titration; remark: listed apart in the source
[5] = biological target: β-R103C/I305C-(AF488)2 (E. coli) (UniProt P0A988); assay: stopped-flow fluorescence kinetics
[6] = biological target: β-S109C/Q299C/R103S-(AF488)2 (E. coli) (UniProt P0A988); assay: stopped-flow fluorescence kinetics
β-S109C-AF488 (E. coli) = β-S109C-AF488 (E. coli) (UniProt P0A988); assay: stopped-flow fluorescence kinetics
[7] = biological target: β-S109C/Q299C/R103S-(AF488)2 (E. coli) (UniProt P0A988); assay: stopped-flow fluorescence kinetics; remark: listed apart in the source

- Kd [1]: 5.3 nM
- Kd [2]: 5 nM
- Kd [3]: 7 nM
- Kd [4]: 4.2 nM
- k close (reverse of step 2 of the bind-open-lock model) [5]: 4 s⁻¹
- k open (step 2 of the bind-open-lock model) [5]: 9 s⁻¹
- koff, fast phase (k f) [5]: 0.058 s⁻¹
- koff, slow phase (k s) [5]: 0.011 s⁻¹
- limiting observed rate constant, rapid phase of opening [5]: 11 s⁻¹
- limiting observed rate constant, slow phase of opening [5]: 1.5 s⁻¹
- koff, fast phase (k f) [6]: 0.039 s⁻¹
- koff, slow phase (k s) [6]: 0.0098 s⁻¹
- maximum observed rate constant, slow phase (clamp opening step) (β-S109C-AF488 (E. coli)): 8 s⁻¹
- koff, fast phase (k f) [7]: 0.046 s⁻¹
- koff, slow phase (k s) [7]: 0.012 s⁻¹
Substance: E. coli clamp loader, γ complex (γ3δδ’ψχ subunits) (from UniProt P06710-2;P28630;P28631;P28905;P28632)
